Data from the supplement of paper PMC10567573.
± gives the standard deviation.

Experiment: protein stability index of a GFP-peptide fusion (GPS, HEK-293T) (PSI 1-6); higher = more stable
[1] = treatment: DMSO, c terminus: a fixed tail appended
[2] = treatment: MLN4924 1 uM, 8 h, c terminus: a fixed tail appended
[3] = treatment: DMSO, c terminus: native
[4] = treatment: MLN4924 1 uM, 8 h, c terminus: native
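Note: 24-mer peptide tiles fused after GFP, lentivirally expressed, FACS-sorted into six equal bins by GFP/DsRed ratio, decoded by Illumina sequencing, PSI is the read-weighted mean bin number.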

Sequence	protein stability index [1]	protein stability index [2]	protein stability index [3]	protein stability index [4]
RTFLETSTDTAVTNEWEKRLSTSP [EPB41L3]	4.17 ± 0.33	3.98 ± 0.2		
WKYALDMQQSNLDPLSPMTASSLL [FEM1C]	2.68 ± 0.19	2.84 ± 0.42		
GPEPPPVYTNLSSYSPASASSGGA [JUNB]	4.6 ± 0.5	4.76 ± 0.3		
IEKFIREPSLKATMGLAGRARVKE [ALG2]	3.6 ± 0.18	3.62 ± 0.33		
LGDPCPMLESPGAPCRSAQASVSC [HDAC6]	3.94 ± 0.39	4.06 ± 0.18		
YLRKGRGETRICKIYDSPCLPEAE [RAD51]	3.65 ± 0.22	3.83 ± 0.28		
AYTHGCILHPELTVDSMIPAYATT [GDAP1]	2.65 ± 0.15	2.76 ± 0.063		
YSGTFALIGAAAFLGGVVRMTISL [CLCN6]	3.78 ± 0.31	2.86 ± 0.15		
EDLELKKKIFAQLDSIIDDRVILS [CRYL1]	3.28 ± 0.26	3.01 ± 0.36		
AEEKERRRKEYDALKAAKREQEKK [LRRC59]	5.31 ± 0.26	5.39 ± 0.12		
HSLTPVSSDHLFLFGGFTTDKQPL [KLHDC2]	2.95 ± 0.46	3.21 ± 0.27		
TQEFLSACKSLQTRQNGIQTNKPA [STX5]	4.18 ± 0.21	4.14 ± 0.23		
ERLFGSAANVVSAKRNRLAPAHVD [ZBED1]	3.65 ± 0.41	3.66 ± 0.34		
HWTSAPLTEASAHSHPPEIKDQGG [MAP2]	5.14 ± 0.14	5.18 ± 0.18		
HNDLWESWFVPDPAGIFKLNHHS [GLT8D2]			2.87 ± 0.15	2.9 ± 0.41
DMWRSENQNRAYVTLAAHFLGLGA [ZBED1]	2.13 ± 0.24	2.01 ± 0.4		
LDLKRQYDRVAQLDQLLHYRKKSA [CHGB]	3.23 ± 0.26	3.63 ± 0.51		
VVLSDGPALHPAHAPQISYTGPSS [NCK2]	3.13 ± 0.37	3.38 ± 0.17		
VLMWTMLFLGQGIQVSLYCQEWYA [SOAT2]	2.87 ± 0.36	3.3 ± 0.6		
NSAMPFKILYDDGKMVEEVDGRAT [PTPRD]	4.69 ± 0.32	4.62 ± 0.13		
EPGRLYLDLILAILALELICSLIC [TMEM192]	2.35 ± 0.49	2.21 ± 0.34		
KTNLDGMITVQLPEVPANENIKGY [PTPRD]	4.12 ± 0.4	4.24 ± 0.28		
GFGILGHSQNLAKQQRNEVSFVIH [SEPHS2]	2.25 ± 0.47	2.32 ± 0.32		

Sequence	protein stability index [1]	protein stability index [2]	protein stability index [3]	protein stability index [4]
NTKNEISELTRLIQRIRSEIENVK [KRT71]	2.83 ± 0.14	2.78 ± 0.24		
SAQLQELVCHVMMGNLVMFRKDSV [INTS3]	3.07 ± 0.38	2.83 ± 0.37		
WDLRMKLHDRGAQVIHPQEFRRWR [DNAAF3]	2.77 ± 0.35	3.02 ± 0.28		
RTYGEPESAGPSRAVRQSVTSFPD [EMD]	4.92 ± 0.24	4.94 ± 0.14		
DCSFPGLPRHQDQPHHQPPNRAGA [TRAF3IP2]	4.91 ± 0.062	5.03 ± 0.14		
SEADASHCIQQILEAVLHCHQMGV [CAMK2B]	2.48 ± 0.14	2.67 ± 0.59		
DSEEEVIERANNVKYGLAATVWSS [ALDH8A1]	4.03 ± 0.17	4.15 ± 0.17		
MPLKWKTSSPAIWKFPVPVLKTSR [KLHL13]	2.46 ± 0.052	2.47 ± 0.44		
RYEQGRFWPHLKASNWSTTGFGQG [HDAC6]	2.54 ± 0.28	2.6 ± 0.12		
PSMIATGSVGAAICGLQQDEEVSS [CCND2]	5.41 ± 0.1	5.15 ± 0.27		
SGLQGLPECTRCGHGIVGTIVKAR [PDLIM4]	2.51 ± 0.32	2.64 ± 0.34		
EVIISWSEKASKKYVSKELAKEIR [EIF5]	2.34 ± 0.15	2.57 ± 0.26		
EKVKACQGQYETIERLRSLSPKIM [TBC1D10A]	3.02 ± 0.28	3.23 ± 0.16		
MSLKCLAARAVRANDINYQDQIPR [FEM1B]	3.49 ± 0.34	3.52 ± 0.17		
YSPEALASIQNHVRKREAPAPEAE [EFHC1]	4.92 ± 0.19	5.06 ± 0.2		
CLTTGDVIAINYNEKIYELRVMET [UFD1]	2.25 ± 0.35	2.04 ± 0.27		
LEQMIKENQEKTEDQYEENSHLTS [ETS2]	5.7 ± 0.16	5.51 ± 0.14		
YGSIHGPTDYQVNIQIIEYEKKQT [BTBD1]	2.96 ± 0.48	3.28 ± 0.33		
PEERLEKQNEKLNNQEEETEFKEL [CCDC89]	5.67 ± 0.11	5.48 ± 0.29		
TYEEAAAYIQCQFEDLNKRKDTKE [GNAI1]	4.61 ± 0.15	4.67 ± 0.12		
NSEEEEDDDDEEEEVSEVESFILD [ANKRD17]	5.06 ± 0.33	4.94 ± 0.23		
MVTCKSEFYHDEFKRWIYLNDQNL [GAN]	2.44 ± 0.43	2.25 ± 0.48		
LRQFFKQLPSPPFLPAAGTADCR [CEBPD]			1.89 ± 0.67	2.16 ± 0.28

Sequence	protein stability index [1]	protein stability index [2]	protein stability index [3]	protein stability index [4]
KDFLTGMCLFLQSLRQKQPERLCS [GMPPB]	2.25 ± 0.44	2.23 ± 0.36		
DTVFRFDPRYNKWMQVASLNEKRT [KLHL13]	2.87 ± 0.41	3.14 ± 0.41		
MDIGQPKDFLTGMCLFLQSLRQKQ [GMPPB]	2.46 ± 0.11	2.72 ± 0.39		
QACMGGRCLHMDQLQDFNIPQAGG [ADAMTS4]	3.38 ± 0.15	3.21 ± 0.09		
RFVQDLVRALEQEKLQGVECGLR [DAPK3]			2.92 ± 1.3	2.14 ± 0.067
KMNPKLKTLLAIGGWNFSTQKFTD [CHIT1]	2.37 ± 0.11	2.3 ± 0.39		
LGDEICCWSFYGQGRKIAEVCCTS [KCTD13]	2.15 ± 0.1	2.1 ± 0.29		
SIDLGTAHSAAVTASGDCYTFGSN [NEK8]	3.79 ± 0.31	4.06 ± 0.35		
LRFFKEKDGKAFHPTYEEKLKLVA [ACBD3]	2.53 ± 0.26	2.5 ± 0.55		
VSDRLAPGAPRGNPPKASAAPDCT [MYCL]	4.94 ± 0.22	4.95 ± 0.19		
LYKEELEQTYHAKLENARLSSEMN [LMNB1]	3.21 ± 0.64	3.62 ± 0.25		
DASILTEMPTQPGKPLIPPMNRRN [NETO1]	4.45 ± 0.25	4.64 ± 0.13		
MRSAAVLALLLCAGQVTALPVNSP [CHGA]	3.21 ± 0.45	2.83 ± 0.57		
VSVNAQTLDGRTPLHLAAQRGHYR [RIPK4]	3.76 ± 0.29	3.77 ± 0.58		
VDLVDESGYVSGYKHAGTYDQKVQ [TPPP]	4.04 ± 0.32	4.01 ± 0.17		
DSQAPAGSLDLVPGGLTLEEHSLE [SPDEF]	5.36 ± 0.21	5.45 ± 0.33		
RQVWLLFEYPESSGPARVIAIVSV [KCNA1]	3.25 ± 0.45	2.64 ± 0.48		
TFDTGCLTLSQYILLDPILMFFIM [POMT2]	2.35 ± 0.52	2.33 ± 0.36		
TLEALGYKGPLLEEQALTKAAEGG [FAM98B]	4.61 ± 0.23	4.66 ± 0.083		
FTVRPDVTQNSTAEPSRFSSSDSD [FCHO1]	5.09 ± 0.32	5.06 ± 0.14		
STNDKTVKLWKVSERDKRPEGYNL [PPP2R2B]	3.93 ± 0.12	4.19 ± 0.14		
GANKEVQELLERGLLQLDHRGLRC [RSAD1]	3.39 ± 0.12	3.66 ± 0.31		
NFRDLVRDLEKQKEEVRAALEQRE [TRIM29]	4.54 ± 0.11	4.43 ± 0.21		

Sequence	protein stability index [1]	protein stability index [2]	protein stability index [3]	protein stability index [4]
SLMYRSPPGAEEPQAPPASRDEAA [RETREG3]	5.44 ± 0.22	5.38 ± 0.26		
CCTHNNSATLSWKQPPLSTVPADG [TRIM9]	3.09 ± 0.073	3.02 ± 0.088		
IFQIGVLGFGPTYVVLAYTLPPAS [SOAT1]	2.97 ± 0.27	3.23 ± 0.68		
LAPEVIQSKGHGRAVDWWALGILI [PRKX]	2.61 ± 0.86	2.3 ± 0.62		
AVSTEDLKECLKKQLEFCFSRENL [LARP4]	2.65 ± 0.55	3.11 ± 0.68		
AYIATQGPLAETTEDFWRMLWEHN [PTPRD]	2.79 ± 0.46	2.8 ± 0.37		
GWRSLWLGWGPTALRDVPFSALYW [SLC25A39]	2.22 ± 0.41	2.99 ± 0.76		
LFLLLGHGASPGLRDGGGLTPLEL [ANKRD9]	2.29 ± 0.32	2.36 ± 0.59		
EEETYKCLECGKSFCHGSSLKRHL [ZNF449]	3.77 ± 0.5	3.78 ± 0.79		
NFEEMRALLDSLPPPVESELALFQ [KLHL14]	3.46 ± 0.45	3.91 ± 0.28		
SLIGKGSFGQVVKAYDHQTQELVA [DYRK1B]	3.56 ± 0.26	3.59 ± 0.43		
GEALGRDHSEHLSGSSYRDALQRY [RBMY1A1]	4.33 ± 0.22	4.26 ± 0.29		
WMEVLVLGVAQRSLPLQDELAFAE [ESRRA]	3.47 ± 0.63	2.64 ± 0.97		
NRIKGCHDHLTLSVSRPEGRSWPS [PDLIM4]	2.87 ± 0.25	3.02 ± 0.18		
DSVKVALLETNPYLLALTIIVSIV [CLPTM1]	2.08 ± 0.28	2.3 ± 0.14		
LESVNHCHLNGIVHRDLKPENLLL [CAMK2D]	2.85 ± 0.34	2.98 ± 0.41		
TCTWKLPTLAKFSPYLGQMINLRR [PRAME]	2.28 ± 0.27	1.89 ± 0.3		
MCEQCDVFYCDPCRLRCHPPRGPL [TRIM9]	2.8 ± 0.32	2.72 ± 0.35		
QVKASSPVPATPILQLEECCTHNN [TRIM9]	4.9 ± 0.21	4.923 ± 0.028		
CQNKCRIALVENIPEGLNYSENAP [PLD5]	3.03 ± 0.45	3.23 ± 0.64		
